Test results taken from US12533393B2, “Vibrio cholerae protein for use against cancer” (priority 2019, dated 2026).

How the values were obtained:
[1] = tested on: non-transformed colon cells (CCD-18Co and CCD 841 CoN), prostate (PNT1A) and oral fibroblasts (PDL1); assay: Cell death assays in non-transformed cells; format: cell-based, human; conditions: at the concentration that effectively killed carcinoma cells
Protocol: For cell death experiments, cells were grown on 96-well plate (1×10^4/well, Tecan Group Ltd) overnight and treated with MakA at different concentration for 48 hours at +37° C., 5% CO2. Cell death was quantified by two different biochemical methods: (1) reduction in PrestoBlue staining; and (2) reduction in MTS absorbance. Cell death is expressed as percentage (%) of untreated control cells for PrestoBlue assay or reduction in absorbance for MTS assay.
However, overexpression of at least three components (makCBA) or whole operon (makDCBA) was required for induction of lethality to C. elegans (FIG. 1A). The effect of purified MakA protein was investigated on in vitro cultured human tumor cell lines of diverse origin (HCT8 and DLD1=colon cancer cell, PC3=Prostate cancer cells, HTB9=Bladder cancer cell, PC3=Prostate cancer cell, Suit2=Pancreatic cancer cell, MCF7=Breast cancer cells).

human RBCs = assay: Hemolysis of human RBCs; format: cell-based
Source text: However, overexpression of at least three components (makCBA) or whole operon (makDCBA) was required for lethality against C. elegans. (Dongre et al. (2018) Commun Biol. 2018 Jun. 7; 1:59) B) MakA causes cell death in tumor cell lines (HCT8 and DLD1=colon cancer cell, PC3=Prostate cancer cells, HTB9=Bladder cancer cell, PC3=Prostate cancer cell, Suit2=Pancreatic cancer cell, MCF7=Breast cancer cells) of diverse origin. The healthy non-cancerous cells from colon (CCD-18Co and CCD 841 CoN), prostate (PNT1A) and oral fibroblasts (PDL1) were intermediately sensitive compared to tumor cells. […] TritonX-100 (0.1%) induced RBCs hemolysis was used as a positive control. D) MakA induced dramatic changes in tumor cell morphology, unlike non-cancerous PDL1 fibroblasts that were largely unaffected. Scale bar=20 μm.

HCT8 cells = assay: Apoptotic cell death by flow cytometry; format: cell-based, human; conditions: 48 h
Protocol: For cell death analysis, cells were treated with MakA or vehicle control for 48 h and were subjected to flow cytometry analysis for apoptotic cell death measurement using either Annexin V/Propidium iodide or Annexin V/7AAD (BD Pharmingen) staining according to manufactures instruction. Percentage of apoptotic cells was determined by BD LSRII and BD Accuri C6 flow cytometer (BD Bioscience), respectively.
Apoptotic cell death in response to MakA was investigated using flow cytometry and fluorescent microscopy.

colon carcinoma cells [2] = assay: Fluorescence and confocal microscopy of apoptosis markers; format: cell-based, human
Source text: (§1) A) MakA induces concentration-dependent apoptotic cell death in HCT8 cells. B) Quantification of flow cytometry events from (A). […] Scale bar=50 μm. D) MakA induces fragmentation of tumor cell nuclei. Scale bar=10 μm E) Accumulation of Bax (green) to the mitochondria of apoptotic cells by MakA. DAPI was used as a nuclear marker. Scale bar=10 μm. F) MakA caused loss of mitochondrial potential in colon carcinoma cells as evident by loss of DiOC6 staining, quantified by flow cytometry. G) MakA causes activation of pro-apoptotic proteins including caspase 3, cytochrome C and Bax and suppression of antiapoptotic protein, Bcl2.
(§2) Colon carcinoma cells were grown on 8-well chamber slide (3×10^4/well, Millipore) overnight, followed by treatment with MakA for 6 or 24 hours and treated with either Alexa-568 labelled or unlabeled MakA (500 nM), fixed with 2% paraformaldehyde (20 min), permeabilized with Triton X (0.25%). Cells were incubated with anti-Ki67 (1:300), anti-β-catenin (1:300), anti-pAKT (1:100) primary antibodies overnight at +4° C., followed by incubation with corresponding Alexa-488 or Alex-568 conjugated secondary antibodies (1:200) for 1 hour. Finally, cells were counterstained with nuclear marker DAPI for 5 min. Slides were mounted with Fluoromount™ aqueous mounting medium (Sigma) and examined using EZC1 Eclipse laser scanning confocal microscope (Nikon), using 63×/1.4 plan Apo ns lens. Images were captured and processed using the NIS-Elements (Nikon) and ImageJ software.

colon carcinoma cells [3] = assay: Mitochondrial potential by DiOC6 staining, flow cytometry; format: cell-based, human
Source text: as §1

[4] = tested on: Bax, Bcl2, cytochrome c, caspase 3 in HCT8 cells; assay: Western blotting of apoptosis proteins; format: cell-based, human
Source text: The regulation of apoptosis involves activation of caspases, increase in Bax/Bcl2 ratio and release of cytochrome c from mitochondria to cytoplasm (Elmore, S. (2007) Toxicol Pathol. 2007; 35(4): 495-516). The effect of MakA on expression of these proteins was investigated using western blotting.
The effect of MakA on expression of cytochrome c and caspase 3 activation was investigated.

tumor cell membrane = assay: Transmission electron microscopy of membranes; format: cell-based; conditions: versus vehicle (Tris 20 mM)
Source text: To address if MakA accumulation at the cell surface may play an important role in tumor cell membrane perturbation, cells treated with MakA were compared to untreated cells and imaged with transmission electron microscopy (TEM). […] The mitochondrial damage was confirmed by confocal microscopy (FIG. 4B).

[5] = tested on: β-catenin in HCT8 and DLD1 cells; assay: β-catenin signaling in colon cancer cells (western blot, fractionation, confocal); format: cell-based, human
Protocol: as §2
To examine whether MakA affects β-catenin signaling in human colon cancer cells, HCT8 and DLD1 cells carrying mutations that inactivates APC tumor suppressor gene (Mouradov, D. et al. (2014) Cancer Res. 2014 Jun. 15; 74(12):3238-47) were used.
To address if MakA decreases the nuclear accumulation of β-catenin, cells were treated with MakA and fractionated into cytoplasmic and nuclear fractions.
As caspase-3 mediated fragmentation of β-catenin has been reported (Steinhusen, U. et al. (2000) J Biol Chem 275: 16345-16353), its role in MakA induced β-catenin fragmentation was investigated.

tumor cell proliferation = assay: Colony forming assay; format: cell-based
Source text: The effect of MakA on tumor cell proliferation was investigated.

[6] = tested on: Ki67, cyclin D1, VEGF in HCT8 and DLD1 cells; assay: Ki67, cyclin D1 and VEGF expression; format: cell-based, human
tumor cell migration = assay: Tumor cell migration; format: cell-based
C. elegans = conditions: MakA overexpressed in E. coli; cited from earlier work
[7] = western blot, HCT8 and DLD1 cells

B1: MakA (protein, listed as Vibrio cholerae)
chain: MSQQVTQLNPTQQTTQSAFLATTVITAQCHAILNTQFTPPTVKPDWFDDLSKKLDSAKLVAKQWIDDLGPQVSASIPSSVINFDATFQASIDAIHELYKADPTASGKDNTTVQQASQIMTALSSQVSGIEATVKGMNKELSDWGVKMQAAHDDLVNGATNIQKTIIDLQTDIESMNNAIDNNRAAIEKLNKDLVYAQVAVGVGIFMLVAGVALTVATAGTAAAVSGGIAAVGAASIIAGGVTWGVLQNQIDDDYDSIAQEQKQKAEDQQQIIALQGLSNASSAVVSAIETSTSVLSDFETTWTVFGNELDDVVTKLNNGASMQSIIMEKVMSDAAKNEWDDAVELAKQLASAKIAIETKELAPAVKQAA
sensitivity of non-transformed cells to MakA [1]: largely unaffected or intermediately sensitive
lysis of human RBCs (human RBCs): failed to induce lysis of human RBCs
early and late apoptotic cell death (HCT8 cells): dose-dependent increase in both early and late apoptotic cell death
Bax accumulation to mitochondria (colon carcinoma cells [2]): causes accumulation of active Bax to the mitochondria of an apoptotic cell
plasma membrane permeabilization (uptake of propidium iodide) (colon carcinoma cells [2]): causes permeabilization of tumor cell plasma membrane
nuclear staining of apoptotic cells (colon carcinoma cells [2]; fluorescence and confocal microscopy): nuclear fragmentation and chromatin condensation
mitochondrial membrane potential (colon carcinoma cells [3]): caused depolarization of the mitochondrial membrane
caspase 3 activation [4]: activation of caspase 3
expression of Bax [4]: induction in expression of pro-apoptotic protein, Bax
expression of Bcl2 [4]: decrease in expression of anti-apoptotic protein, Bcl2
expression of cytochrome c [4]: increase in cytochrome c expression
nuclear membrane by TEM (tumor cell membrane): irregular thin nuclear membrane indicating its damage
plasma membrane and mitochondria by TEM (tumor cell membrane): induced plasma membrane remodelling and mitochondrial damage
β-catenin expression ([5]; HCT8 and DLD1 cells): caused suppression of β-catenin expression in both HCT8 and DLD1 cells
β-catenin localization ([5]; compared to untreated control): accumulate at the plasma membrane
β-catenin expression in cytoplasmic and nuclear fractions ([5]; fractionated cells): caused reduction in β-catenin expression both in cytoplasmic and nuclear fractions
β-catenin fragmentation [5, 7]: β-catenin fragmentation was detected
tumor cell proliferation (tumor cell proliferation): caused significant reduction in tumor cell proliferation
Ki67 positive cells [6]: reduction in number of Ki67 positive cells
cyclin D1 expression [6]: reduction in cyclin D1 expression
expression of VEGF [6, 7]: inhibited in both HCT8 and DLD1 cells
tumor cell migration (tumor cell migration): caused suppression of tumor cell migration in a dose dependent manner
lethality to C. elegans (C. elegans): not lethal to C. elegans
